Data published in US20140030218A1, “Treatment And Screening” (IMPERIAL INNOVATIONS LIMITED, published 2014).

B7: human IRF5 tagged with one-strep tag (N-terminus) and HA tag (C-terminus) (other)
chain: MNQSIPVAPTPPRRVRLKPWLVAQVNSCQYPGLQWVNGEKKLFCIPWRHATRHGPSQDGDNTIFKAWAKETGKYTEGVDEADPAKWKANLRCALNKSRDFRLIYDGPRDMPPQPYKIYEVCSNGPAPTDSQPPEDYSFGAGEEEEEEEELQRMLPSLSLTEDVKWPPTLQPPTLQPPVVLGPPAPDPSPLAPPPGNPAGFRELLSEVLEPGPLPASLPPAGEQLLPDLLISPHMLPLTDLEIKFQYRGRPPRALTISNPHGCRLFYSQLEATQEQVELFGPISLEQVRFPSPEDIPSDKQRFYTNQLLDVLDRGLILQLQGQDLYAIRLCQCKVFWSGPCASAHDSCPNPIQREVKTKLFSLEHFLNELILFQKGQTNTPPPFEIFFCFGEEWPDRKPREKKLITVQVVPVAARLLLEMFSGELSWSADSIRLQISNPDLKDRMVEQFKELHHIWQSQQRLQPVAQAPPGAGLGVGQGPWPMHPAGMQ
notes: Expressed in HEK-293-TLR4-CD14/Md2 cells and purified on Strep-Tactin after formaldehyde cross-linking; also called onestrep-IRF5-HA; IRF5 with an N-terminal one-strep tag and a C-terminal HA tag; not shown: N-terminal one-strep tag; C-terminal HA tag

Legend:
IRF5 DBD (aa 1-131) [1] = biological target: T1, IRF5 DBD (aa 1-131) (Homo sapiens, UniProt Q13568 SEQ:1-131); assay: EMSA; 50 ng IRF5 DBD; ISRE 1/2 said to interact in vitro; conditions: tags: expressed from pET21d in bacteria; label: 32P (dCTP fill-in); 5' agct overhangs
Procedure: (§1) (A) Recombinant purified IRF5-DBD was used in an EMSA with radioactive probe corresponding to the selected ISRE and κB sites. PRDI-III (IFN-˜ promoter) was used as a positive control.
(§2) Binding reactions with 50 ng of bacterially expressed and purified IRF5 DBD and EMSA gel separation were performed as previously described⁵.

[2] = biological target: B7; assay: Strep-Tactin pull-down of one-strep-IRF5-HA from formaldehyde-cross-linked HEK-293 cells, immunoblot
Procedure: (§3) HEK-293-TLR4-CD14/Md2 cells were transfected with onestrep-IRF5-HA construct or corresponding empty vector. 24 hrs post transfection cells were fixed with 1% formaldehyde for 10 minutes at room temperature prior to high salt lysis and affinity purification on Strep-Tactin MacroPrep sepharose (IBA). The eluates were de-crosslinked by incubating at 65° C. overnight prior to separation by SDS-PAGE. Exogenous IRF5 and endogenous RelA were detected by immunoblotting with anti-HA-HRP (12013819001, Roche) and anti-RelA (sc-372, Santa-Cruz, US). Alternatively, cells were transfected with RelA-FLAG or BAP-FLAG control protein. 24 hrs post transfection cells were lysed and affinity purified with anti-FLAG M2 sepharose beads (Sigma, UK). Exogenous RelA and endogenous IRF5 were detected by immunoblotting with anti-FLAG-HRP (A8592, Sigma, UK) and anti-IRF5 (Abcam, UK). Interaction of endogenous RelA and IRF5 was detected by overnight incubation of the cell lysates with goat anti-IRF5 antibody (ab2932, Abcam, UK) or no antibody control prior to precipitation with protein G beads. IRF5 was detected by immunoblotting with mouse anti-IRF5 antibody (sc-56714, Santa-Cruz, USA) while RelA—by immunoblotting with anti-RelA. Triton X-100 extracted nuclei and DNase I digestion of chromatin was performed as described previously¹⁷.
(§4) IRF5 with an N-terminal one-strep tag and a C-terminal HA tag was expressed in HEK-293 cells. […] To determine whether this interaction was specific, we immunoblotted for other NE-κB family members: Rel-B, c-Rel, p50 and p52, or a control protein tubulin. […] Furthermore we conducted a complementary experiment, in which human RelA containing C-terminal FLAG tag was expressed in HEK-293 cells and immunoprecipitated in the absence of a cross-linking agents on anti-FLAG sepharose. Specific interactions between ectopically expressed RelA and endogenous IRF5 were observed. No interaction was detected between a control FLAG-tagged bacterial alkaline phosphatase (BAP) and IRF5 (FIG. 24B, compare lanes 1 and 2).

IRF5 DBD (aa 1-131) [3] = biological target: T1, IRF5 DBD (aa 1-131); assay: EMSA; non-consensus ISRE; conditions: tags: expressed from pET21d in bacteria; label: 32P (dCTP fill-in); 5' agct overhangs
Procedure: as §1, §2

[4] = biological target: T2, human RelA containing C-terminal FLAG tag (human, UniProt Q04206 1-551); assay: One-Strep affinity purification from co-transfected HEK293-TLR4-CD14/Md2 cells, Western blot
T2 construct: Expressed in HEK-293 cells; also called RelA-FLAG; Flag-tagged RelA; not shown: C-terminal FLAG tag
T2 sequence (Q04206 other isoform, or with tags, fused parts or gaps): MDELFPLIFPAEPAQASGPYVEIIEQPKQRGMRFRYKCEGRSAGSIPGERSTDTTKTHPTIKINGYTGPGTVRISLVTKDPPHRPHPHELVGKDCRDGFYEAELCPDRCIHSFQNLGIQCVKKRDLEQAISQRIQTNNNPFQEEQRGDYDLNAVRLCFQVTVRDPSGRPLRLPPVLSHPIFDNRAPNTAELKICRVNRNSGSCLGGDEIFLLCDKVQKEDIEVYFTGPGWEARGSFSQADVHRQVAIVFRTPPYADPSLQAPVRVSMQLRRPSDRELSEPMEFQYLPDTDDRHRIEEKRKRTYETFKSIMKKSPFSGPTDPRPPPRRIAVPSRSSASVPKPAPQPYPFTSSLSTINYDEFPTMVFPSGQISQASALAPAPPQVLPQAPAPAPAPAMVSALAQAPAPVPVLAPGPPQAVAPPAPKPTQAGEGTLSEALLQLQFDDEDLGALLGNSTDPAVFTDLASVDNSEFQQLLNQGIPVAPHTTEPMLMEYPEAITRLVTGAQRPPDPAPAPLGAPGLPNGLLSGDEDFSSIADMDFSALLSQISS

Rel-B = biological target: T3, Rel-B (UniProt Q01201 1-579); assay: Strep-Tactin pull-down of one-strep-IRF5-HA from formaldehyde-cross-linked HEK-293 cells, immunoblot
T3 construct: Endogenous protein in HEK-293 lysate, probed by immunoblot
T3 sequence (looked up): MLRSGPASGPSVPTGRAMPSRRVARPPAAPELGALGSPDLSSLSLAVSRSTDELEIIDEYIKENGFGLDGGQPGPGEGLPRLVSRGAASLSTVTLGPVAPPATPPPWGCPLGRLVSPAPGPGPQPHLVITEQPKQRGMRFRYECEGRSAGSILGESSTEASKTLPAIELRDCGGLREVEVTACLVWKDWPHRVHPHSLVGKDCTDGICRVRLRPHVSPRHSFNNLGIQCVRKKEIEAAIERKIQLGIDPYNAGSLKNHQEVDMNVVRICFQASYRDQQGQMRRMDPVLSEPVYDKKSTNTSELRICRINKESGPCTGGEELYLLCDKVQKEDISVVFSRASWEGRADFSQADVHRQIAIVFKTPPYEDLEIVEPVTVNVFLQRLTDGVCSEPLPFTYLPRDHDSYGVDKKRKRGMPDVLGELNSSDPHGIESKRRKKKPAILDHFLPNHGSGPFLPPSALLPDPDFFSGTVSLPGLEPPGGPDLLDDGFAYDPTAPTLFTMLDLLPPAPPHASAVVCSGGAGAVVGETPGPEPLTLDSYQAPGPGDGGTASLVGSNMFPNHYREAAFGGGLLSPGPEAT
Procedure: as §3, §4

c-Rel = biological target: T4, c-Rel (UniProt Q04864 2-619, limits assumed); assay: as above
T4 construct: Endogenous protein in HEK-293 lysate, probed by immunoblot
T4 sequence (looked up): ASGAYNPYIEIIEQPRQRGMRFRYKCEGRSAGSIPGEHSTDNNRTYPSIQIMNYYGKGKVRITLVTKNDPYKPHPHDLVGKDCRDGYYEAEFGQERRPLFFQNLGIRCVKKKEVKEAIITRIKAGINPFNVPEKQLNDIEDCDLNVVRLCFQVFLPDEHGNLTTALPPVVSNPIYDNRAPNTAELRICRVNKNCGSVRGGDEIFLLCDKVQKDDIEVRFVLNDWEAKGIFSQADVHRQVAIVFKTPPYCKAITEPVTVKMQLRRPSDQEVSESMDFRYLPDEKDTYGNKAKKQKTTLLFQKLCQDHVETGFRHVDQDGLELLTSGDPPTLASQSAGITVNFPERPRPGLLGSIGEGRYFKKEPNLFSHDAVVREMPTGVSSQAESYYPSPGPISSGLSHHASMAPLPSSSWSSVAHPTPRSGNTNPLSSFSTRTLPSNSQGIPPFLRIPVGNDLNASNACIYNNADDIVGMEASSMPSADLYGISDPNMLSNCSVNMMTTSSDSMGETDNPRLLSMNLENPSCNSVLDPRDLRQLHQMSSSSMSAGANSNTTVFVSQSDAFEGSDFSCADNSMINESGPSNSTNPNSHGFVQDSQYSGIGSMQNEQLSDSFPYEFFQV
Procedure: as §3, §4

IRF5 DBD (aa 1-131) [5] = biological target: T1, IRF5 DBD (aa 1-131); assay: EMSA; 50 ng IRF5 DBD; conditions: tags: expressed from pET21d in bacteria; label: 32P (dCTP fill-in); 5' agct overhangs
Procedure: as §1, §2

B1: TNF ISRE1 (dsDNA)
DNA 1: AGCTGAAGCCAAGACTGAAACCAGCATTA
DNA 2: AGCTTAATGCTGGTTTCAGTCTTGGCTTC
binding result (IRF5 DBD (aa 1-131) [1]): binds

B2: p52 (other, UniProt Q00653 1-454, looked up)
chain: MESCYNPGLDGIIEYDDFKLNSSIVEPKEPAPETADGPYLVIVEQPKQRGFRFRYGCEGPSHGGLPGASSEKGRKTYPTVKICNYEGPAKIEVDLVTHSDPPRAHAHSLVGKQCSELGICAVSVGPKDMTAQFNNLGVLHVTKKNMMGTMIQKLQRQRLRSRPQGLTEAEQRELEQEAKELKKVMDLSIVRLRFSAFLRASDGSFSLPLKPVISQPIHDSKSPGASNLKISRMDKTAGSVRGGDEVYLLCDKVQKDDIEVRFYEDDENGWQAFGDFSPTDVHKQYAIVFRTPPYHKMKIERPVTVFLQLKRKRGGDVSDSKQFTYYPLVEDKEEVQRKRRKALPTFSQPFGGGSHMGGGSGGAAGGYGGAGGGGSLGFFPSSLAYSPYQSGAGPMGCYPGGGGGAQMAATVPSRDSGEEAAEPSAPSRTPQCEPQAPEMLQRAREYNARLFGLA
notes: Endogenous protein in HEK-293 lysate, probed by immunoblot; also called NF-kB p52
binding result [2]: no binding

B3: TNF 'ISRE'16 (dsDNA)
DNA 1: AGCTTTTGCTTAGAAAAGAAACATGGTCTC
DNA 2: AGCTGAGACCATGTTTCTTTTCTAAGCAAA
binding result (IRF5 DBD (aa 1-131) [3]): no binding

B4: p50 (other, UniProt P19838 1-433, looked up)
chain: MAEDDPYLGRPEQMFHLDPSLTHTIFNPEVFQPQMALPTDGPYLQILEQPKQRGFRFRYVCEGPSHGGLPGASSEKNKKSYPQVKICNYVGPAKVIVQLVTNGKNIHLHAHSLVGKHCEDGICTVTAGPKDMVVGFANLGILHVTKKKVFETLEARMTEACIRGYNPGLLVHPDLAYLQAEGGGDRQLGDREKELIRQAALQQTKEMDLSVVRLMFTAFLPDSTGSFTRRLEPVVSDAIYDSKAPNASNLKIVRMDRTAGCVTGGEEIYLLCDKVQKDDIQIRFYEEEENGGVWEGFGDFSPTDVHRQFAIVFKTPKYKDINITKPASVFVQLRRKSDLETSEPKPFLYYPEIKDKEEVQRKRQKLMPNFSDSFGGGSGAGAGGGGMFGSGGGGGGTGSTGPGYSFPHYGFPTYGGITFHPGTTKSNAGMKHG
notes: Endogenous protein in HEK-293 lysate, probed by immunoblot; also called NF-kB p50
binding result [2]: no binding

B5: TNF 'ISRE'17 (dsDNA)
DNA 1: AGCTACATAAACAAAGCCCAACAGAATATTCC
DNA 2: AGCTGGAATATTCTGTTGGGCTTTGTTTATGT
binding result (IRF5 DBD (aa 1-131) [3]): no binding

B6: One-Strep-IRF5 fusion protein (other)
chain: MNQSIPVAPTPPRRVRLKPWLVAQVNSCQYPGLQWVNGEKKLFCIPWRHATRHGPSQDGDNTIFKAWAKETGKYTEGVDEADPAKWKANLRCALNKSRDFRLIYDGPRDMPPQPYKIYEVCSNGPAPTDSQPPEDYSFGAGEEEEEEEELQRMLPSLSLTEDVKWPPTLQPPTLQPPVVLGPPAPDPSPLAPPPGNPAGFRELLSEVLEPGPLPASLPPAGEQLLPDLLISPHMLPLTDLEIKFQYRGRPPRALTISNPHGCRLFYSQLEATQEQVELFGPISLEQVRFPSPEDIPSDKQRFYTNQLLDVLDRGLILQLQGQDLYAIRLCQCKVFWSGPCASAHDSCPNPIQREVKTKLFSLEHFLNELILFQKGQTNTPPPFEIFFCFGEEWPDRKPREKKLITVQVVPVAARLLLEMFSGELSWSADSIRLQISNPDLKDRMVEQFKELHHIWQSQQRLQPVAQAPPGAGLGVGQGPWPMHPAGMQ
notes: also called full-length IRF5 (One-Strep bait); not shown: One-Strep tag
binding result [4]: binds

B7
binding result (Rel-B): no binding | binding result (c-Rel): no binding

B8: TNF kB4a (dsDNA)
DNA 1: AGCTAACTCTGGGAATTCCAATCCTT
DNA 2: AGCTAAGGATTGGAATTCCCAGAGTT
binding result (IRF5 DBD (aa 1-131) [5]): no binding

B9: TNF kB4b (dsDNA)
DNA 1: AGCTCTTGCTGGGAAAATCCTGCAG
DNA 2: AGCTGCTGCAGGATTTTCCCAGCAAG
binding result (IRF5 DBD (aa 1-131) [5]): no binding
